One block for each substance: values may come before it.
Tests used:
[1] = molecular target: His-tagged recombinant human SMN protein (ProteinTech, catalog # ag14333) (human) (UniProt Q16637); assay: Erenna sandwich assay, capture PT 60154-1-Ig; SMN 10 pg/mL, MPs 5 µg/well, Det Ab 100 ng/mL, Cap Ab/MP 12.5 µg/mg
[2] = molecular target: His-tagged recombinant human SMN protein (ProteinTech, catalog # ag14333) (human) (UniProt Q16637); assay: Erenna sandwich assay, capture PT 60154-1-Ig; SMN 10 pg/mL, MPs 10 µg/well, Det Ab 50 ng/mL, Cap Ab/MP 25 µg/mg
[3] = molecular target: His-tagged recombinant human SMN protein (ProteinTech, catalog # ag14333) (human) (UniProt Q16637); assay: Erenna sandwich assay, capture PT 60154-1-Ig; SMN 10 pg/mL, MPs 5 µg/well, Det Ab 50 ng/mL, Cap Ab/MP 25 µg/mg
[4] = molecular target: His-tagged recombinant human SMN protein (ProteinTech, catalog # ag14333) (human) (UniProt Q16637); assay: Erenna sandwich assay, capture PT 60154-1-Ig; SMN 10 pg/mL, MPs 5 µg/well, Det Ab 500 ng/mL, Cap Ab/MP 25 µg/mg
[5] = molecular target: His-tagged recombinant human SMN protein (ProteinTech, catalog # ag14333) (human) (UniProt Q16637); assay: Erenna sandwich assay, capture PT 60154-1-Ig; SMN 10 pg/mL, MPs 10 µg/well, Det Ab 100 ng/mL, Cap Ab/MP 25 µg/mg
[6] = molecular target: His-tagged recombinant human SMN protein (ProteinTech, catalog # ag14333) (human) (UniProt Q16637); assay: BLI (BLItz), His-tagged SMN immobilised on the biosensor tip, antibody in solution
[7] = molecular target: His-tagged recombinant human SMN protein (ProteinTech, catalog # ag14333) (human) (UniProt Q16637); assay: Erenna sandwich assay, capture PT 60154-1-Ig; SMN 10 pg/mL, MPs 5 µg/well, Det Ab 50 ng/mL, Cap Ab/MP 12.5 µg/mg
[8] = molecular target: His-tagged recombinant human SMN protein (ProteinTech, catalog # ag14333) (human) (UniProt Q16637); assay: Erenna sandwich assay, capture PT 60154-1-Ig; SMN 10 pg/mL, MPs 10 µg/well, Det Ab 1000 ng/mL, Cap Ab/MP 12.5 µg/mg
[9] = molecular target: His-tagged recombinant human SMN protein (ProteinTech, catalog # ag14333) (human) (UniProt Q16637); assay: Erenna sandwich assay, capture PT 60154-1-Ig; SMN 10 pg/mL, MPs 5 µg/well, Det Ab 1000 ng/mL, Cap Ab/MP 12.5 µg/mg
[10] = molecular target: His-tagged recombinant human SMN protein (ProteinTech, catalog # ag14333) (human) (UniProt Q16637); assay: Erenna sandwich assay, capture PT 60154-1-Ig; SMN 10 pg/mL, MPs 10 µg/well, Det Ab 500 ng/mL, Cap Ab/MP 25 µg/mg
[11] = molecular target: His-tagged recombinant human SMN protein (ProteinTech, catalog # ag14333) (human) (UniProt Q16637); assay: Erenna sandwich assay, capture PT 60154-1-Ig; SMN 10 pg/mL, MPs 5 µg/well, Det Ab 500 ng/mL, Cap Ab/MP 12.5 µg/mg
[12] = molecular target: His-tagged recombinant human SMN protein (ProteinTech, catalog # ag14333) (human) (UniProt Q16637); assay: Erenna sandwich assay, capture PT 60154-1-Ig; SMN 10 pg/mL, MPs 10 µg/well, Det Ab 100 ng/mL, Cap Ab/MP 12.5 µg/mg
[13] = molecular target: His-tagged recombinant human SMN protein (ProteinTech, catalog # ag14333) (human) (UniProt Q16637); assay: Erenna sandwich assay, capture PT 60154-1-Ig; SMN 10 pg/mL, MPs 10 µg/well, Det Ab 1000 ng/mL, Cap Ab/MP 25 µg/mg
[14] = molecular target: His-tagged recombinant human SMN protein (ProteinTech, catalog # ag14333) (human) (UniProt Q16637); assay: Erenna sandwich assay, capture PT 60154-1-Ig; SMN 10 pg/mL, MPs 5 µg/well, Det Ab 100 ng/mL, Cap Ab/MP 25 µg/mg
[15] = molecular target: His-tagged recombinant human SMN protein (ProteinTech, catalog # ag14333) (human) (UniProt Q16637); assay: Erenna sandwich assay, capture PT 60154-1-Ig; SMN 10 pg/mL, MPs 10 µg/well, Det Ab 50 ng/mL, Cap Ab/MP 12.5 µg/mg
[16] = molecular target: His-tagged recombinant human SMN protein (ProteinTech, catalog # ag14333) (human) (UniProt Q16637); assay: Erenna sandwich assay, capture PT 60154-1-Ig; SMN 10 pg/mL, MPs 5 µg/well, Det Ab 1000 ng/mL, Cap Ab/MP 25 µg/mg
[17] = molecular target: His-tagged recombinant human SMN protein (ProteinTech, catalog # ag14333) (human) (UniProt Q16637); assay: Erenna sandwich assay, capture PT 60154-1-Ig; SMN 10 pg/mL, MPs 10 µg/well, Det Ab 500 ng/mL, Cap Ab/MP 12.5 µg/mg

Chain of UniProt Q16637 (Q16637 whole entry): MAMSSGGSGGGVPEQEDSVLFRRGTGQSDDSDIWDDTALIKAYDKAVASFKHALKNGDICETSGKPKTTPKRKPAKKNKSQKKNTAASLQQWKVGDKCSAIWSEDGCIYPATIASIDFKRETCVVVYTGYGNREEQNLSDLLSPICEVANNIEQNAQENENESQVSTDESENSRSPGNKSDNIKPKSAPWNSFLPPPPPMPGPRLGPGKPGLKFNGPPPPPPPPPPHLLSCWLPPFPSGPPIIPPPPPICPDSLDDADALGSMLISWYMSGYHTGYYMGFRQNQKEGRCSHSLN

- detected events (DE) (detected events) [1]: 501
- detected events (DE) (detected events) [2]: 269
- detected events (DE) (detected events) [3]: 256
- detected events (DE) (detected events) [4]: 2040
- detected events (DE) (detected events) [5]: 505
- Kd [6]: < 0.001 nM
- koff [6]: < 1e-07 s⁻¹
- kon [6]: 105000 M⁻¹ s⁻¹
- detected events (DE) (detected events) [7]: 231
- detected events (DE) (detected events) [8]: 3720
- detected events (DE) (detected events) [9]: 3570
- detected events (DE) (detected events) [10]: 2140
- detected events (DE) (detected events) [11]: 1960
- detected events (DE) (detected events) [12]: 523
- detected events (DE) (detected events) [13]: 3370
- detected events (DE) (detected events) [14]: 481
- detected events (DE) (detected events) [15]: 302
- detected events (DE) (detected events) [16]: 3440
- detected events (DE) (detected events) [17]: 2180
Substance: Millipore anti-SMN2 (catalog # MABE230) (antibody)

- Kd [6]: < 0.1 nM
- koff [6]: < 1e-07 s⁻¹
- kon [6]: 12300 M⁻¹ s⁻¹
Substance: Enzo anti-SMN1 (catalog # ADI-NBA-202-200) (antibody)

- kon [6]: 637000 M⁻¹ s⁻¹
Substance: BD Biosciences anti-SMN (catalog #610647) (antibody)

- Kd [6]: < 1 nM
- koff [6]: < 1e-07 s⁻¹
- kon [6]: 884 M⁻¹ s⁻¹
Substance: ProteinTech anti-SMN2 (catalog #60154-2-Ig) (antibody)

From US20170363643A1
